From patent publication US20160347802A1 (MAX PLANCK GESELLSCHAFT ZUR FOERDERUNG DER WISSENSCHAFTEN E …, published 2016)

B1: human Netrin-4, AVEXIS protein (ligand, UniProt Q9HB63 19-628, looked up)
chain: GLSGVAGVSSRCEKACNPRMGNLALGRKLWADTTCGQNATELYCFYSENTDLTCRQPKCDKCNAAYPHLAHLPSAMADSSFRFPRTWWQSAEDVHREKIQLDLEAEFYFTHLIVMFKSPRPAAMVLDRSQDFGKTWKPYKYFATNCSATFGLEDDVVKKGAICTSKYSSPFPCTGGEVIFKALSPPYDTENPYSAKVQEQLKITNLRVQLLKRQSCPCQRNDLNEEPQHFTHYAIYDFIVKGSCFCNGHADQCIPVHGFRPVKAPGTFHMVHGKCMCKHNTAGSHCQHCAPLYNDRPWEAADGKTGAPNECRTCKCNGHADTCHFDVNVWEASGNRSGGVCDDCQHNTEGQYCQRCKPGFYRDLRRPFSAPDACKPCSCHPVGSAVLPANSVTFCDPSNGDCPCKPGVAGRRCDRCMVGYWGFGDYGCRPCDCAGSCDPITGDCISSHTDIDWYHEVPDFRPVHNKSEPAWEWEDAQGFSALLHSGKCECKEQTLGNAKAFCGMKYSYVLKIKILSAHDKGTHVEVNVKIKKVLKSTKLKIFRGKRTLYPESWTDRGCTCPILNPGLEYLVAGHEDIRTGKLIVNMKSFVQHWKPSLGRKVMDILKRECK
notes: not shown: AVEXIS tag (bait or prey)
B2: human Netrin-G1, AVEXIS protein (ligand, UniProt Q9Y2I2 29-510, looked up)
chain: HYDLCKTQIYTEEGKVWDYMACQPESTDMTKYLKVKLDPPDITCGDPPETFCAMGNPYMCNNECDASTPELAHPPELMFDFEGRHPSTFWQSATWKEYPKPLQVNITLSWSKTIELTDNIVITFESGRPDQMILEKSLDYGRTWQPYQYYATDCLDAFHMDPKSVKDLSQHTVLEIICTEEYSTGYTTNSKIIHFEIKDRFAFFAGPRLRNMASLYGQLDTTKKLRDFFTVTDLRIRLLRPAVGEIFVDELHLARYFYAISDIKVRGRCKCNLHATVCVYDNSKLTCECEHNTTGPDCGKCKKNYQGRPWSPGSYLPIPKGTANTCIPSISSIGNCECFGHSNRCSYIDLLNTVICVSCKHNTRGQHCELCRLGYFRNASAQLDDENVCIECYCNPLGSIHDRCNGSGFCECKTGTTGPKCDECLPGNSWHYGCQPNVCDNELLHCQNGGTCHNNVRCLCPAAYTGILCEKLRCEEAGSCGS
notes: as for B1
B3: human Netrin-G2, AVEXIS protein (ligand, UniProt Q96CW9 18-507, looked up)
chain: DYDICKSWVTTDEGPTWEFYACQPKVMRLKDYVKVKVEPSGITCGDPPERFCSHENPYLCSNECDASNPDLAHPPRLMFDKEEEGLATYWQSITWSRYPSPLEANITLSWNKTVELTDDVVMTFEYGRPTVMVLEKSLDNGRTWQPYQFYAEDCMEAFGMSARRARDMSSSSAHRVLCTEEYSRWAGSKKEKHVRFEVRDRFAIFAGPDLRNMDNLYTRLESAKGLKEFFTLTDLRMRLLRPALGGTYVQRENLYKYFYAISNIEVIGRCKCNLHANLCSMREGSLQCECEHNTTGPDCGKCKKNFRTRSWRAGSYLPLPHGSPNACATAGSFGNCECYGHSNRCSYIDFLNVVTCVSCKHNTRGQHCQHCRLGYYRNGSAELDDENVCIECNCNQIGSVHDRCNETGFCECREGAAGPKCDDCLPTHYWRQGCYPNVCDDDQLLCQNGGTCLQNQRCACPRGYTGVRCEQPRCDPADDDGGLDCDRAPG
notes: as for B1

Legend:
[1] = target: T1, human Netrin-3, AVEXIS protein (human, UniProt O00634 28-580); assay: AVEXIS, prey on bait NTN3; white = No binding
T1 construct: not shown: AVEXIS tag (bait or prey)
T1 sequence (O00634 28-580): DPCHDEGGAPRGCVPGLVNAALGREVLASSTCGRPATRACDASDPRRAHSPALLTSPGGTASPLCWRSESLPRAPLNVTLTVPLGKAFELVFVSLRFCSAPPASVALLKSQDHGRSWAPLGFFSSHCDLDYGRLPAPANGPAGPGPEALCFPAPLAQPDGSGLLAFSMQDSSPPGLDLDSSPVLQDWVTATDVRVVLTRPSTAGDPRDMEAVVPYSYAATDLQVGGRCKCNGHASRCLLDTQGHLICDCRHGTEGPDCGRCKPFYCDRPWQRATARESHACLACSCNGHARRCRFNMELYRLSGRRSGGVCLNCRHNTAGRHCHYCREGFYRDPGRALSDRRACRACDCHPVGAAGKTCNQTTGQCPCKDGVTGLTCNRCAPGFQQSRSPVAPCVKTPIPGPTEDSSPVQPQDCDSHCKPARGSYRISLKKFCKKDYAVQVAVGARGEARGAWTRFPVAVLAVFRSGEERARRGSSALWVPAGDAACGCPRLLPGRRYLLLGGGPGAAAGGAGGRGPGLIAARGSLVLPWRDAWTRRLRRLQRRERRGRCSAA
Text: (§1) The Matn4-bait served as an internal prey-protein control and was used for normalization of the A486 nm values; conditioned medium (CM) serves as negative control; n=3.

[2] = target: T2, human DRAXIN 21 amino acid Netrin binding fragment, AVEXIS prey or bait protein (human); assay: AVEXIS, prey on bait DRAXIN 21aa; white = No binding
T2 construct: Tested in both bait and prey orientations; also called human 21 amino acid DRAXIN fragment; derived 21 amino acid peptide; not shown: AVEXIS tag (rat Cd4d3+4 and prey or bait module)
T2 peptide: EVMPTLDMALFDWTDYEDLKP
Text: as §1

[3] = target: T3, biotinylated recombinant human UNC5B (human, UniProt Q8IZJ1 27-377); assay: AVEXIS, prey on bait UNC5B; white = No binding
T3 construct: Made in HEK293-6E and immobilised on an SA chip
Text: as §1

[4] = target: the molecule itself; assay: AVEXIS, prey on bait NTN4; white = No binding
Text: as §1

[5] = target: T4, human Netrin1, recombinant AVEXIS protein (biotinylated when immobilised) (human, UniProt O95631 25-604); assay: AVEXIS, prey on bait NTN1; white = No binding
T4 construct: also called NTN1
Text: as §1

[6] = target: B2; assay: AVEXIS, prey on bait NTNG1; white = No binding
Text: as §1

[7] = target: T5, Matn4 ECD, mono-biotinylated bait protein (positive control); assay: AVEXIS, prey on bait Matn4 (+), positive control for the prey; dark = Binding
T5 construct: extracellular domain; also called Matn4-bait
Text: as §1

[8] = target: B3; assay: AVEXIS, prey on bait NTNG2; white = No binding
Text: as §1

[9] = target: the molecule itself; assay: AVEXIS, prey NTN4 on bait NTN4
Text: as §1

[10] = target: T6, human DRAXIN, AVEXIS prey or bait protein (human, UniProt Q8NBI3 26-349); assay: AVEXIS, prey on bait DRAXIN; white = No binding
T6 sequence: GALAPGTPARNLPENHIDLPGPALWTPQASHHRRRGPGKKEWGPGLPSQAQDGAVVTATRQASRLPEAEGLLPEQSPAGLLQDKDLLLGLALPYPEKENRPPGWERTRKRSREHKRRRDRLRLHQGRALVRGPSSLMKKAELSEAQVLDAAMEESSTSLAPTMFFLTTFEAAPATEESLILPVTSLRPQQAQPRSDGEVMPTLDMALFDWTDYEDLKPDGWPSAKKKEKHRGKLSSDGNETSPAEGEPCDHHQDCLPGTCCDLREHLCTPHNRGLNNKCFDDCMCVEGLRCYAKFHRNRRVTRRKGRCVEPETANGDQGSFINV
Text: as §1

[11] = target: T4, human Netrin1, recombinant AVEXIS …; assay: AVEXIS, prey NTN1 on bait NTN4
Text: as §1

[12] = target: B1; assay: AVEXIS, prey on bait NTN4; white = No binding
Text: as §1

[13] = target: B1; assay: AVEXIS, prey NTN4 on bait NTNG1
Text: as §1

[14] = target: the molecule itself; assay: AVEXIS, prey on bait NTNG1; white = No binding
Text: as §1

[15] = target: T1, human Netrin-3, AVEXIS protein; assay: AVEXIS, prey NTN3 on bait NTNG1
Text: as §1

[16] = target: the molecule itself; assay: AVEXIS, prey NTNG1 on bait NTNG1
Text: as §1

[17] = target: T4, human Netrin1, recombinant AVEXIS …; assay: AVEXIS, prey NTN1 on bait NTNG1
Text: as §1

[18] = target: B3; assay: AVEXIS, prey NTNG1 on bait NTNG2
Text: as §1

[19] = target: T4, human Netrin1, recombinant AVEXIS …; assay: AVEXIS, prey NTN1 on bait NTNG2
Text: as §1

[20] = target: T1, human Netrin-3, AVEXIS protein; assay: AVEXIS, prey NTN3 on bait NTNG2
Text: as §1

[21] = target: the molecule itself; assay: AVEXIS, prey on bait NTNG2; white = No binding
Text: as §1

[22] = target: the molecule itself; assay: AVEXIS, prey NTNG2 on bait NTNG2
Text: as §1

[23] = target: B1; assay: AVEXIS, prey NTN4 on bait NTNG2
Text: as §1

Q: How did the A486nm [1] turn out when B1 was run?
A: Its A486nm is 0.065.

Q: And the A486nm [2]?
A: The A486nm was 0.067.

Q: And the A486nm [3]?
A: Its A486nm is 0.063.

Q: What about the A486nm [4] of the same binder?
A: Its A486nm is 0.068.

Q: What about the A486nm [5] of the same binder?
A: The A486nm was 0.067.

Q: What about the A486nm [6] of the same binder?
A: Its A486nm is 0.065.

Q: What about the A486nm [7] of the same binder?
A: Its A486nm is 0.235.

Q: And the A486nm [8]?
A: The A486nm was 0.063.

Q: Does B1 bind [9]?
A: Result: no binding

Q: What about the A486nm [10] of the same binder?
A: The A486nm was 0.063.

Q: Does B1 bind [11]?
A: Result: no binding

Q: With B2 as the binder, how does the A486nm [1] read?
A: The A486nm was 0.064.

Q: What about the A486nm [2] of the same binder?
A: The A486nm was 0.063.

Q: What about the A486nm [3] of the same binder?
A: The A486nm was 0.061.

Q: And the A486nm [12]?
A: Its A486nm is 0.066.

Q: Does B2 bind [13]?
A: Result: no binding

Q: And the A486nm [5]?
A: Its A486nm is 0.062.

Q: What about the A486nm [14] of the same binder?
A: Its A486nm is 0.062.

Q: And the A486nm [7]?
A: The A486nm was 0.254.

Q: What about the A486nm [8] of the same binder?
A: Its A486nm is 0.061.

Q: Does B2 bind [15]?
A: Result: no binding

Q: Does B2 bind [16]?
A: Result: no binding

Q: What about the A486nm [10] of the same binder?
A: The A486nm was 0.061.

Q: Does B2 bind [17]?
A: Result: no binding

Q: Does B2 bind [18]?
A: Result: no binding

Q: How did the A486nm [1] turn out when B3 was run?
A: Its A486nm is 0.062.

Q: What about the A486nm [2] of the same binder?
A: Its A486nm is 0.063.

Q: Does B3 bind [19]?
A: Result: no binding

Q: And the A486nm [3]?
A: Its A486nm is 0.061.

Q: Does B3 bind [20]?
A: Result: no binding

Q: And the A486nm [12]?
A: Its A486nm is 0.063.

Q: And the A486nm [5]?
A: The A486nm was 0.06.

Q: What about the A486nm [6] of the same binder?
A: The A486nm was 0.061.

Q: And the A486nm [7]?
A: Its A486nm is 0.201.

Q: What about the A486nm [21] of the same binder?
A: Its A486nm is 0.062.

Q: Does B3 bind [22]?
A: Result: no binding

Q: Does B3 bind [23]?
A: Result: no binding

Q: What about the A486nm [10] of the same binder?
A: The A486nm was 0.06.
